# Test results from publication PMC6200646 (Journal of immunology (Baltimore, Md. : 1950), 2018).
# T1: human CD25, captured for SPR (human, UniProt P01589 22-240)
# T1 sequence (looked up): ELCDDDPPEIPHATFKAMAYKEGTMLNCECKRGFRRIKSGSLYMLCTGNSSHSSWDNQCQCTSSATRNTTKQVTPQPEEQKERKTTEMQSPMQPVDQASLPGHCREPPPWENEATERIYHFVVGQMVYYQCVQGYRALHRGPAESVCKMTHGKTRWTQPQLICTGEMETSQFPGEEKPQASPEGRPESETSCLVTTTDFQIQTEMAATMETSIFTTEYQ
# T2: biot-mCD25(22-186)-BioP-TVMV-His, His cleaved (mouse, UniProt P01590 22-186, biotin)
# T2 sequence (looked up): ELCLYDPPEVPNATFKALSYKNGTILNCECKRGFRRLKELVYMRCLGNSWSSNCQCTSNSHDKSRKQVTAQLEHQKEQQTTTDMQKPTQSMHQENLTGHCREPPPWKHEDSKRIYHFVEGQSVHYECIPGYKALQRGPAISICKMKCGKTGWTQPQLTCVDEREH
# T3: mCD122(27-241)-hFc-D/mCD132(23-263)-hFc-K heterodimeric Fc fusion (mouse, UniProt P16297 27-241; P34902 23-263)
# T3 sequence (looked up) 1: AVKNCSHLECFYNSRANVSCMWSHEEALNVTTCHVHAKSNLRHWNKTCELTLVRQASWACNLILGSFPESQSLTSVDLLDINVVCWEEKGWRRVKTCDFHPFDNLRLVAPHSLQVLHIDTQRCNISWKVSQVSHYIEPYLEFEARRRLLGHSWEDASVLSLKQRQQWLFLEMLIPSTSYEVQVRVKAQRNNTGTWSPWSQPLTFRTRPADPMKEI
# T3 sequence (looked up) 2: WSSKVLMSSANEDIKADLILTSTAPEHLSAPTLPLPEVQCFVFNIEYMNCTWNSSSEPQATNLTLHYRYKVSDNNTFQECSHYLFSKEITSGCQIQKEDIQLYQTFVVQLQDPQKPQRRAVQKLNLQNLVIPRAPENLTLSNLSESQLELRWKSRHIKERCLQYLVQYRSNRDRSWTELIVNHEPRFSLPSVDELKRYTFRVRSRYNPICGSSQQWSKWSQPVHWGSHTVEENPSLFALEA
# Legend:
# [1] = target: T1, human CD25, captured for SPR; test: SPR
# [2] = target: T2, biot-mCD25(22-186)-BioP-TVMV-His, His …; test: SPR
# SEC-MALS = target: the molecule itself; test: SEC-MALS
# [3] = target: T3, mCD122(27-241)-hFc-D/mCD132(23-263)-hFc- …; test: SPR
Binder,fold weaker Kd than mIL-2 to mCD25 [1] [fold],fold weaker apparent Kd than mIL-2 to mCD25 [2] [fold],stoichiometry N (SEC-MALS),fold weaker apparent Kd than mIL-2 to mIL-2Rβ/γc [3] [fold],fold stronger affinity than mIL-2/mCD25 to mCD25 [2] [fold],fold weaker binding than mIL-2 to mIL-2Rβ/γc [3] [fold]
"mouse IL-2 (ligand, UniProt P04351 21-169, looked up) APTSSSTSSSTAEAQQQQQQQQQQQQHLEQLLMDLQELLSRMENYRNLKLPRMLTFKFYLPKQATELKDLQCLEDELGPLRHVLDLTQSKSFQLEDAENFISNIRVTVVKLKGSDNTFECQFDDESATVVDFLRRWIAFCQSIISTSPQ",~234,–,–,–,–,–
"mIL-2/mCD25 fusion protein with the 12 amino acid (G3S)3 linker (other, mouse, glycosylated (N- and O-linked carbohydrate)) APTSSSTSSSTAEAQQQQQQQQQQQQHLEQLLMDLQELLSRMENYRNLKLPRMLTFKFYLPKQATELKDLQCLEDELGPLRHVLDLTQSKSFQLEDAENFISNIRVTVVKLKGSDNTFECQFDDESATVVDFLRRWIAFCQSIISTSPQGGGSGGGSGGGSELCLYDPPEVPNATFKALSYKNGTILNCECKRGFRRLKELVYMRCLGNSWSSNCQCTSNSHDKSRKQVTAQLEHQKEQQTTTDMQKPTQSMHQENLTGHCREPPPWKHEDSKRIYHFVEGQSVHYECIPGYKALQRGPAISICKMKCGKTGWTQPQLTCVDEREHHRFLASEESQGSRNSSPESETSCPITTTDFPQPTETTAMTETFVLTMEYKGG",–,~1000,2,~680,–,–
"mIL-2/hCD25 mouse/human chimeric fusion protein with the 12 amino acid (G3S)3 linker (other, mouse | human, glycosylated) APTSSSTSSSTAEAQQQQQQQQQQQQHLEQLLMDLQELLSRMENYRNLKLPRMLTFKFYLPKQATELKDLQCLEDELGPLRHVLDLTQSKSFQLEDAENFISNIRVTVVKLKGSDNTFECQFDDESATVVDFLRRWIAFCQSIISTSPQGGGSGGGSGGGSELCDDDPPEIPHATFKAMAYKEGTMLNCECKRGFRRIKSGSLYMLCTGNSSHSSWDNQCQCTSSATRNTTKQVTPQPEEQKERKTTEMQSPMQPVDQASLPGHCREPPPWENEATERIYHFVVGQMVYYQCVQGYRALHRGPAESVCKMTHGKTRWTQPQLICTGEMETSQFPGEEKPQASPEGRPESETSCLVTTTDFQIQTEMAATMETSIFTTEYQGG",–,–,2,–,10,45
